We go through two molecules from article PMC9522604.

Series [1] concerns the target T1, Cas12c2 (UniProt PDB:7V94_1 1-1232).
T1 sequence: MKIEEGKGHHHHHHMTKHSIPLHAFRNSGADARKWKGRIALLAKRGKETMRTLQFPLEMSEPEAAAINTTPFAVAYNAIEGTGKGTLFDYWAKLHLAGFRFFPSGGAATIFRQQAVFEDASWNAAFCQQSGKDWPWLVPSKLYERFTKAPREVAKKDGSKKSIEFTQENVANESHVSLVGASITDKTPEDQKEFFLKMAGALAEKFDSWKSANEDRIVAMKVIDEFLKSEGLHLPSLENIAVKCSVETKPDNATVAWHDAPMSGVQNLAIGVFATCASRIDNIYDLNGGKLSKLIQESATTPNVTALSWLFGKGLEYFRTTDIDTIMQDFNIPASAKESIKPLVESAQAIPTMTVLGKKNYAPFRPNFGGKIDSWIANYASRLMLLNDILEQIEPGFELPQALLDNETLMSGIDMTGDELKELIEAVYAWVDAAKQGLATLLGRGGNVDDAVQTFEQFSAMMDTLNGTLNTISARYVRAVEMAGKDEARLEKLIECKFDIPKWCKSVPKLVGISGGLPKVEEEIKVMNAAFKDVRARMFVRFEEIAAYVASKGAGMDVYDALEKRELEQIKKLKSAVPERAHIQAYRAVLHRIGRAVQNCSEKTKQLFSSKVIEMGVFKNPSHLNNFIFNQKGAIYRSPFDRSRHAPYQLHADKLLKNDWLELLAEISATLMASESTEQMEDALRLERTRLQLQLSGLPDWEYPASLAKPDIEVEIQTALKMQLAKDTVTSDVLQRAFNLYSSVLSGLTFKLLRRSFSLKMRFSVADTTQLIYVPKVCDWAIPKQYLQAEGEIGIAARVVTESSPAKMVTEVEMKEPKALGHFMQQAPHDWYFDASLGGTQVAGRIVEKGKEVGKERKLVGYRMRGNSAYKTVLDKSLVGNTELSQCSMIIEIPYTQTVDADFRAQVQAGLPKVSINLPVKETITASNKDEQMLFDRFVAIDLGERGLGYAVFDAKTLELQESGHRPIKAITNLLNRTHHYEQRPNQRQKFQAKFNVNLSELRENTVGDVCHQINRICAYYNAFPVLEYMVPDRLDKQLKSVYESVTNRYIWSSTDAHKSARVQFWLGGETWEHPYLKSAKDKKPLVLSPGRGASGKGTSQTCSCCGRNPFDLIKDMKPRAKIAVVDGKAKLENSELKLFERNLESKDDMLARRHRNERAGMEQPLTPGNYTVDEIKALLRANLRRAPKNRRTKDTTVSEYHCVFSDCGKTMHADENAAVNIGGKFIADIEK
The series can be described thus: cryo-EM.

The target of series [2] is T1, Cas12c2. As to the kind of experiment: cryo-EM. This is another data set of the same source.

Read-outs that look alike come from different tables or passages of the source.

B1: Cas12c2 sgRNA (112 nt) (structured_RNA)
RNA: GGAUACCACCCGUGCAUUUCUGGAUCAAUGAUCCGUACCUCAAUGUCCGGGCGCGCAGCUAGAGCGACCUGAAGAAAUUCAGGUUGGGUUUGAGGGGAAAUUAGGUGCGCUU
For the molecule B1, in series [1], the binding result was “binds”.

B2: sgRNA + 33-bp target DNA, TG PAM (guide/target strand/non-target strand) (mixed)
RNA: GGAUACCACCCGUGCAUUUCUGGAUCAAUGAUCCGUACCUCAAUGUCCGGGCGCGCAGCUAGAGCGACCUGAAGAAAUUCAGGUUGGGUUUGAGGGGAAAUUAGGUGCGCUU
DNA 1: AGGTTGCCAAGCGCACCTAATTTCCCATTTTAG
DNA 2: CTAAAATGGGAAATTAGGTGCGCTTGGCAACCT
Consider B2, for which the binding result in series [2] is reported as “binds”.
